US20220363738A1

The substances below were run against purified fragment of human Calnexin containing Amino acid 1-481 fused to human FC region (FC-CNX) (human) (UniProt P27824) (assay: ELISA, coat CNX-Fc (figure title), antibody 1 ug/ml, HRP secondary, OD450 normalised to BSA).
Chain of purified fragment of human Calnexin containing Amino acid 1-481 fused to human FC region (FC-CNX) (human) (P27824 21-481 limits assumed, form in doubt): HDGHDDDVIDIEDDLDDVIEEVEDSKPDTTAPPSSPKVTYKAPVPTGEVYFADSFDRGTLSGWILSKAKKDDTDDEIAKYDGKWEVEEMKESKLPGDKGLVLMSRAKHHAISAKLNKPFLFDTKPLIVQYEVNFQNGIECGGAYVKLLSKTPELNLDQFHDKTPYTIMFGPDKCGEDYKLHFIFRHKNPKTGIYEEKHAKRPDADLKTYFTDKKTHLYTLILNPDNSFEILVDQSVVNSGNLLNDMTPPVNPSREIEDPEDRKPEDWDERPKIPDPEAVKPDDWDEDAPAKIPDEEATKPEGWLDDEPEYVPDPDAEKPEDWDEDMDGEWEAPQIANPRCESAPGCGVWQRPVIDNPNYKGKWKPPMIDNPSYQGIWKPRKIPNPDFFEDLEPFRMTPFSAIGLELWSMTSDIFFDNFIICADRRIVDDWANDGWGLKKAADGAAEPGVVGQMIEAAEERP

Substance | OD450 (Normalised to BSA)
CNX ab10286 (antibody) | 4.79
CRT ab92516 (antibody) | 0.9
ctrl hIgG (antibody) | 0.51
